The values that follow come from article PMC6459857.

The target in assay [1] is Cdk2 (UniProt P24941). In words: single-molecule fluorescence anisotropy, BODIPY at C93. To be noted: reference: unphosphorylated p27-C93; sites Y88. A general note: Fluorescence polarisation rises when a labelled molecule tumbles more slowly, as on binding a larger partner.
In assay [2] the target is Cdk2 (UniProt P24941). In words: single-molecule FRET, dyes at C54 and C93. To be noted: reference: unphosphorylated p27-C54-93; sites Y88.

As for “p27Kip1 (p27) 1-198 (from UniProt P46527) pY88-p27-C93”, the “other: fraction in flexible state” value in the assay with Cdk2 [1] is on record as “weaker; reference 33”.

On to “p27Kip1 (p27) 1-198 (from UniProt P46527) pY88-p27-C54-93”, for which, in the assay with Cdk2 [2], the “other: fraction in released minor state” value is “weaker; reference 17”.
